Results on one substance are retold here after patent publication US20130012432A1, “Peptides for Treatment of Obesity” (Novo Nordisk A/S, priority 2010, published 2013).

The experiment has as its target human GLP-1 receptor (human) (UniProt P43220). The experiment in a line: cell-based or functional assay.

human GLP-1 receptor (human), sequence (P43220 24-463): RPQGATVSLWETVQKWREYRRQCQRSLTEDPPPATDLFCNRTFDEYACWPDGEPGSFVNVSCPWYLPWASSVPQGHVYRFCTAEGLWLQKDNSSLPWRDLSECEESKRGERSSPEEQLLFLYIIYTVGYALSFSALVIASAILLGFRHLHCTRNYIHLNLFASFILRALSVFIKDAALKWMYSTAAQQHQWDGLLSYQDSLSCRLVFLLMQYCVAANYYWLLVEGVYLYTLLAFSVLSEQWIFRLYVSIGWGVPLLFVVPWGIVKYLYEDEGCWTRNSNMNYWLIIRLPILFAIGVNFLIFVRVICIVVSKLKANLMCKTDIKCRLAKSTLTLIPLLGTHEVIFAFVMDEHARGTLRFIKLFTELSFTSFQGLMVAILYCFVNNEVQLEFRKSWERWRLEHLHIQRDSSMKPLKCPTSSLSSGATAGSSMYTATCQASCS

“N-epsilon37-[2-(2-{2-[2-(2-{2-[(S)-4-Carboxy-4-({trans-4-[(19-carboxynonadecanoylamino)methyl]cyclohexanecarbonyl}amino)butyrylamino]ethoxy}ethoxy)acetylamino]ethoxy}ethoxy)acetyl][DesaminoHis7,Glu22,Arg26,Arg34,Lys37]GLP-1-(7-37) (peptide)” registered an EC50 of cAMP formation (AlphaScreen, Assay XI), relative to that of compound G1 (times the EC50 of compound G1) of 5.
